Ten molecules from US20190112375A1 (Bristol-Myers Squibb, published 2019) can be followed below.

Assay [1] addresses T1, recombinant human TIGIT (rhTIGIT/Fc) (human, UniProt Q495A1 22-141).
T1 construct: also called TIGIT antigen (rhTIGIT/Fc); not shown: Fc part
T1 sequence: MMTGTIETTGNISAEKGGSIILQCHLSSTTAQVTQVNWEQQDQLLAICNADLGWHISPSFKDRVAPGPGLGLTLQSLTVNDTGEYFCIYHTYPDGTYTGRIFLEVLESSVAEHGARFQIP
In words: SPR, mAb captured on anti-kappa chip, rhTIGIT/Fc analyte. As for the experimental part: Binding of anti-huTIGIT antibodies to soluble human TIGIT was determined by BIACORE® surface plasmon resonance (SPR) analysis. […] The capture concentration of the mAb/volume was 2-40 μg/mL (5 μL at 10 μL/min). The antigen association time was 5 minutes at 15 μL/min, the antigen dissociation time was 6 minutes, and regeneration was performed with 50 mM HCl/50 mM NaOH (12 μL each at 100 μL/min).
(In general: Surface plasmon resonance follows binding to a sensor surface in real time, without labels.)

In assay [2] the target is T2, human TIGIT (soluble, SPR; construct not stated) (human, UniProt Q495A1 22-141, limits assumed).
T2 construct: whole entry named; also called huTIGIT
T2 sequence: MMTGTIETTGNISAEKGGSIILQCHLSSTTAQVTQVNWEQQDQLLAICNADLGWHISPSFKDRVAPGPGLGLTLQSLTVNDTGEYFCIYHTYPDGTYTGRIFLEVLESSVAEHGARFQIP
In words: SPR, full titration curves, subcloned and purified antibody.

Assay [3] deals with T2, human TIGIT (soluble, SPR; construct …). In words: SPR.
Assay [4] shares this target. In words: SPR. This is another data set of the same source.
The target of another assay is T3, cynomolgus monkey TIGIT (cynomolgus monkey).
T3 construct: also called cyno TIGIT
Put plainly: SPR.

Another assay deals with T4, human TIGIT on cells (human, UniProt Q495A1 22-244).
T4 sequence: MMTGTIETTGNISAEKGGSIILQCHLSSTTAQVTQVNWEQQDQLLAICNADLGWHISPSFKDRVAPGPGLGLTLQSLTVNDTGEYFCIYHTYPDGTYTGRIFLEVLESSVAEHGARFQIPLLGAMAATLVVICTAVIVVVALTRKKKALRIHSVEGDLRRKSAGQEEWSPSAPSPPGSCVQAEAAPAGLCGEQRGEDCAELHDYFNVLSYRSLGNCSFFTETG
Put plainly: cell-based or functional assay.

B1: 11G11 (antibody, V domains shown)
VH: QLQLQESGPGLVKPSETLSLTCTVSGGSISSSSHYWGWIRQPPGKGLEWIGNIFYSGHTYYNPSLKSRVTISVDTSKNQFSLKLSSVTAADTAVYYCARQGLLWFGGLSPYYFDYWGQGTLVTVSS
VL: EIVLTQSPATLSLSPGERATLSCRASQSVSSYLAWYQQKPGQAPRLLIYDASNRATGIPARFSGSGSGTDFTLTISSLEPEDFAVYYCQQRSNWPTFGQGTKLEIK
notes: fully human mAb from KM mouse hybridoma; also called anti-huTIGIT mAb 11G11
On to B1, for which, in assay [1], the Kd – broadly, the concentration at which binding is half-saturated – amounted to 28.7 nM; the koff (in general, a measure of how fast the partners let go of each other) was determined as 0.00144 s⁻¹; the kon (as a rule, a measure of how fast the partners come together) was 50300 M⁻¹ s⁻¹.

B2: 15A6 (antibody, V domains shown)
VH: QLQLQESGPGLVKPSETLSLTCTVSGGSISSSRYFWGWIRQPPGKGLEWIGYIYYRGSTYYNPSLKSRVTIAVDTSKNQFSLKLSSVTAADTAVYYCASSSAWYFDYWGQGNLVTVSS
VL: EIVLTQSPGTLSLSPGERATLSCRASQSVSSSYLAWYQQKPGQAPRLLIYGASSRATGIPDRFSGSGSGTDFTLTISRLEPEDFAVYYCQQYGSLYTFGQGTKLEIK
notes: fully human mAb from KM mouse hybridoma, kappa light chain; also called anti-huTIGIT mAb 15A6
For the molecule B2, the Kd in assay [2] was determined as 1.5 nM. In assay [1], the Kd was found to be 19.9 nM, the koff is 0.00404 s⁻¹ and the kon is 202000 M⁻¹ s⁻¹.

B3: 15A6 IgG1.1f (antibody)
heavy: QLQLQESGPGLVKPSETLSLTCTVSGGSISSSRYFWGWIRQPPGKGLEWIGYIYYRGSTYYNPSLKSRVTIAVDTSKNQFSLKLSSVTAADTAVYYCASSSAWYFDYWGQGNLVTVSSASTKGPSVFPLAPSSKSTSGGTAALGCLVKDYFPEPVTVSWNSGALTSGVHTFPAVLQSSGLYSLSSVVTVPSSSLGTQTYICNVNHKPSNTKVDKRVEPKSCDKTHTCPPCPAPEAEGAPSVFLFPPKPKDTLMISRTPEVTCVVVDVSHEDPEVKFNWYVDGVEVHNAKTKPREEQYNSTYRVVSVLTVLHQDWLNGKEYKCKVSNKALPSSIEKTISKAKGQPREPQVYTLPPSREEMTKNQVSLTCLVKGFYPSDIAVEWESNGQPENNYKTTPPVLDSDGSFFLYSKLTVDKSRWQQGNVFSCSVMHEALHNHYTQKSLSLSPG
VL: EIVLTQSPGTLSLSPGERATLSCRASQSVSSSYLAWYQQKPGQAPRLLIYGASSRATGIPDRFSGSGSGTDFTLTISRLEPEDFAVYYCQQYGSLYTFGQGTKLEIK
notes: kappa light chain
In assay [3], B3 yielded a Kd of 1.5 nM, a koff of 0.0016 s⁻¹ and a kon of 1.1e+06 M⁻¹ s⁻¹.

B4: 15A6 N112T IgG1.1f (antibody)
heavy: QLQLQESGPGLVKPSETLSLTCTVSGGSISSSRYFWGWIRQPPGKGLEWIGYIYYRGSTYYNPSLKSRVTIAVDTSKNQFSLKLSSVTAADTAVYYCASSSAWYFDYWGQGTLVTVSSASTKGPSVFPLAPSSKSTSGGTAALGCLVKDYFPEPVTVSWNSGALTSGVHTFPAVLQSSGLYSLSSVVTVPSSSLGTQTYICNVNHKPSNTKVDKRVEPKSCDKTHTCPPCPAPEAEGAPSVFLFPPKPKDTLMISRTPEVTCVVVDVSHEDPEVKFNWYVDGVEVHNAKTKPREEQYNSTYRVVSVLTVLHQDWLNGKEYKCKVSNKALPSSIEKTISKAKGQPREPQVYTLPPSREEMTKNQVSLTCLVKGFYPSDIAVEWESNGQPENNYKTTPPVLDSDGSFFLYSKLTVDKSRWQQGNVFSCSVMHEALHNHYTQKSLSLSPG
VL: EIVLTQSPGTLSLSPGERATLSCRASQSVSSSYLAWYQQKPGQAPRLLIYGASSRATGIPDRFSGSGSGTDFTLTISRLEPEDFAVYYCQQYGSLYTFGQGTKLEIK
notes: kappa light chain; also called 15A6 VH domain N112T
As to B4, in assay [3], binding was put at a Kd of 1.7 nM, the koff is 0.0019 s⁻¹ and the kon was 1.1e+06 M⁻¹ s⁻¹.

B5: 15A6 A72S IgG1.1f (antibody)
heavy: QLQLQESGPGLVKPSETLSLTCTVSGGSISSSRYFWGWIRQPPGKGLEWIGYIYYRGSTYYNPSLKSRVTISVDTSKNQFSLKLSSVTAADTAVYYCASSSAWYFDYWGQGNLVTVSSASTKGPSVFPLAPSSKSTSGGTAALGCLVKDYFPEPVTVSWNSGALTSGVHTFPAVLQSSGLYSLSSVVTVPSSSLGTQTYICNVNHKPSNTKVDKRVEPKSCDKTHTCPPCPAPEAEGAPSVFLFPPKPKDTLMISRTPEVTCVVVDVSHEDPEVKFNWYVDGVEVHNAKTKPREEQYNSTYRVVSVLTVLHQDWLNGKEYKCKVSNKALPSSIEKTISKAKGQPREPQVYTLPPSREEMTKNQVSLTCLVKGFYPSDIAVEWESNGQPENNYKTTPPVLDSDGSFFLYSKLTVDKSRWQQGNVFSCSVMHEALHNHYTQKSLSLSPG
VL: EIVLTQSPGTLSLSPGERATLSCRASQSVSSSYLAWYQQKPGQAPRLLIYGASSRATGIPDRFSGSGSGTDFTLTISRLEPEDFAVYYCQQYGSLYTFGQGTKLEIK
notes: kappa light chain; also called 15A6 VH domain A72S
In assay [3], B5 registered a Kd of 1.5 nM, a koff of 0.0017 s⁻¹ and a kon of 1.1e+06 M⁻¹ s⁻¹.

B6: 15A6 A72S & N112T IgG1.1f (antibody)
heavy: QLQLQESGPGLVKPSETLSLTCTVSGGSISSSRYFWGWIRQPPGKGLEWIGYIYYRGSTYYNPSLKSRVTISVDTSKNQFSLKLSSVTAADTAVYYCASSSAWYFDYWGQGTLVTVSSASTKGPSVFPLAPSSKSTSGGTAALGCLVKDYFPEPVTVSWNSGALTSGVHTFPAVLQSSGLYSLSSVVTVPSSSLGTQTYICNVNHKPSNTKVDKRVEPKSCDKTHTCPPCPAPEAEGAPSVFLFPPKPKDTLMISRTPEVTCVVVDVSHEDPEVKFNWYVDGVEVHNAKTKPREEQYNSTYRVVSVLTVLHQDWLNGKEYKCKVSNKALPSSIEKTISKAKGQPREPQVYTLPPSREEMTKNQVSLTCLVKGFYPSDIAVEWESNGQPENNYKTTPPVLDSDGSFFLYSKLTVDKSRWQQGNVFSCSVMHEALHNHYTQKSLSLSPG
VL: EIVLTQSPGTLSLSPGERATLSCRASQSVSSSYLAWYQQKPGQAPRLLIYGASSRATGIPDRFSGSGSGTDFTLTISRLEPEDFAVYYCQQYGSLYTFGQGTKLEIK
notes: kappa light chain; also called 15A6 VH domain A72S N112T
Take B6: in assay [3], the Kd worked out at 2 nM, the koff was determined as 0.002 s⁻¹ and the kon is 1e+06 M⁻¹ s⁻¹.

B7: 10D7 (antibody, V domains shown)
VH: QGQLVQSGAEVKKPGSSVKVSCKASGGIFRNYAISWVRQAPGQGLEWMGGIIPFFGTANYAQKFQGRVTITADESTSTAYMELSSLRSEDTAVYYCARGGAAAGTTRYGYYYYGMDVWGQGTTVTVSS
VL: DIQMTQSPSSLSASVGDRVTITCRASQGISSWLAWYQQKPEKAPKSLIYAASSLQSGVPSRFSGSGSGTDFTLTISSLQPEDFATYYCQQYNSYPITFGQGTRLEIK
notes: fully human mAb from KM mouse hybridoma; also called anti-huTIGIT mAb 10D7
For the molecule B7, in assay [1], the Kd came to 38.1 nM, the koff is 0.00651 s⁻¹ and the kon stood at 171000 M⁻¹ s⁻¹.

B8: 22G2 (antibody, V domains shown)
VH: QVHLQESGPGLVKPSETLSLTCTVSGGSVSSGIYYWSWIRQPPGKGLEWIGYIYYSGSTNYNPSLKSRVTISVDTSKNQFSLKLSSVTAADTAVYYCARDYYVSGNYYNVDYYFFGVDVWGQGTTVTVSS
VL: EIVLTQSPATLSLSPGERATLSCRASQSVSSYLAWYQQKPGQAPRLLIYDASNRATGIPARFSGSGSGTDFTLTISSLEPEDFAVYYCQQRSNWPPLFTFGPGTKVDIK
notes: fully human mAb from KM mouse hybridoma, kappa light chain; also called anti-huTIGIT mAb 22G2; antibody 22G2
Consider B8, for which the Kd in assay [4] came out at 0.06 nM; in the assay with cynomolgus monkey TIGIT, 0.09 nM; in assay [2], 0.09 nM; in assay [1] it was 0.17 nM. Besides, the “Bioassay of Jurkat/hTIGIT cells, block of PVR signaling, IC50” value in the assay with human TIGIT on cells turned out to be 0.21 nM. Further, in assay [1], the koff worked out at 0.000403 s⁻¹. Besides, the kon in assay [1] stood at 2.37e+06 M⁻¹ s⁻¹.

B9: 22G2 H3Q IgG1 (antibody)
heavy: QVQLQESGPGLVKPSETLSLTCTVSGGSVSSGIYYWSWIRQPPGKGLEWIGYIYYSGSTNYNPSLKSRVTISVDTSKNQFSLKLSSVTAADTAVYYCARDYYVSGNYYNVDYYFFGVDVWGQGTTVTVSS
light: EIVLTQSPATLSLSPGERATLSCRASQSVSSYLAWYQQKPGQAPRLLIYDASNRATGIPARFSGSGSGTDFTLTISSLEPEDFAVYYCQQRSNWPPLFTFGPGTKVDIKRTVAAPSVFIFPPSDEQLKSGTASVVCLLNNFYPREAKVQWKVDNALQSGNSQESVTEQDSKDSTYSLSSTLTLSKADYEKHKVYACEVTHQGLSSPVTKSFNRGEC
notes: isotype printed as IgG1 (perhaps IgG1f); kappa constant tied to the 22G2 light chain only by claim 4; also called 22G2 VH domain H3Q, isotype IgG1; not shown: human IgG1 constant region
In assay [3], B9 returned a Kd of 0.16 nM, a koff of 0.0003 s⁻¹ and a kon of 1.9e+06 M⁻¹ s⁻¹.

B10: 22G2 H3Q IgG1.1f (antibody)
heavy: QVQLQESGPGLVKPSETLSLTCTVSGGSVSSGIYYWSWIRQPPGKGLEWIGYIYYSGSTNYNPSLKSRVTISVDTSKNQFSLKLSSVTAADTAVYYCARDYYVSGNYYNVDYYFFGVDVWGQGTTVTVSSASTKGPSVFPLAPSSKSTSGGTAALGCLVKDYFPEPVTVSWNSGALTSGVHTFPAVLQSSGLYSLSSVVTVPSSSLGTQTYICNVNHKPSNTKVDKRVEPKSCDKTHTCPPCPAPEAEGAPSVFLFPPKPKDTLMISRTPEVTCVVVDVSHEDPEVKFNWYVDGVEVHNAKTKPREEQYNSTYRVVSVLTVLHQDWLNGKEYKCKVSNKALPSSIEKTISKAKGQPREPQVYTLPPSREEMTKNQVSLTCLVKGFYPSDIAVEWESNGQPENNYKTTPPVLDSDGSFFLYSKLTVDKSRWQQGNVFSCSVMHEALHNHYTQKSLSLSPG
light: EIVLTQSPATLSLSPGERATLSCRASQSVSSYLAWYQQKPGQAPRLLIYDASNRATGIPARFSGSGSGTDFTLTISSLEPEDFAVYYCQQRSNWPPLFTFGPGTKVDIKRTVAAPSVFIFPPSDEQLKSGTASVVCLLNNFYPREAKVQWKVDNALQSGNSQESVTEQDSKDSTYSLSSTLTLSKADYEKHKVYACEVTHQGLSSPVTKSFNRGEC
notes: kappa constant tied to the 22G2 light chain only by claim 4; also called 22G2 VH domain H3Q, isotype IgG1.1f
As for B10, in assay [3], the affinity, expressed as Kd, was 0.08 nM; the koff is 0.00016 s⁻¹; the kon came to 2e+06 M⁻¹ s⁻¹.
